Here are results for two molecules from paper PMC515284, “Site-specific mutagenesis of Drosophila proliferating cell nuclear antigen enhances its effects on calf thymus DNA polymerase δ” (BMC Biochemistry, 2004).

This assay has as its target T1, calf thymus DNA polymerase δ (two-subunit form) (bovine (endogenous in calf thymus), UniProt P28339 1-1106; P49004 1-469).
T1 construct: DNA polymerase δ larger, catalytic subunit p125, calf thymus (bovine); DNA polymerase δ smaller subunit p50, calf thymus (bovine); all experiments used the two-subunit form (p125 and p50); also called pol δ; calf thymus pol δ; source: purified from calf thymus (to apparent homogeneity)
As to the kind of experiment: native gel or EMSA; nondenaturing PAGE band mobility shift of 32P-labelled 30-21-mer template-primer (0.1 pmol) with 10 ng pol δ and 70 ng PCNA; without MgCl2, 3 mM EDTA in incubation and gel buffer; essentially qualitative; the complex holds DNA as well. The conditions noted are these: both partners purified. For orientation: Mobility shift assays separate free from complexed probe on a gel.

Where a chain is given by its changes, count along the chain named. Names and notes keep the numbering of the source.

T1 sequence (P28339 whole entry, stated change not applied, chain 1 of 2): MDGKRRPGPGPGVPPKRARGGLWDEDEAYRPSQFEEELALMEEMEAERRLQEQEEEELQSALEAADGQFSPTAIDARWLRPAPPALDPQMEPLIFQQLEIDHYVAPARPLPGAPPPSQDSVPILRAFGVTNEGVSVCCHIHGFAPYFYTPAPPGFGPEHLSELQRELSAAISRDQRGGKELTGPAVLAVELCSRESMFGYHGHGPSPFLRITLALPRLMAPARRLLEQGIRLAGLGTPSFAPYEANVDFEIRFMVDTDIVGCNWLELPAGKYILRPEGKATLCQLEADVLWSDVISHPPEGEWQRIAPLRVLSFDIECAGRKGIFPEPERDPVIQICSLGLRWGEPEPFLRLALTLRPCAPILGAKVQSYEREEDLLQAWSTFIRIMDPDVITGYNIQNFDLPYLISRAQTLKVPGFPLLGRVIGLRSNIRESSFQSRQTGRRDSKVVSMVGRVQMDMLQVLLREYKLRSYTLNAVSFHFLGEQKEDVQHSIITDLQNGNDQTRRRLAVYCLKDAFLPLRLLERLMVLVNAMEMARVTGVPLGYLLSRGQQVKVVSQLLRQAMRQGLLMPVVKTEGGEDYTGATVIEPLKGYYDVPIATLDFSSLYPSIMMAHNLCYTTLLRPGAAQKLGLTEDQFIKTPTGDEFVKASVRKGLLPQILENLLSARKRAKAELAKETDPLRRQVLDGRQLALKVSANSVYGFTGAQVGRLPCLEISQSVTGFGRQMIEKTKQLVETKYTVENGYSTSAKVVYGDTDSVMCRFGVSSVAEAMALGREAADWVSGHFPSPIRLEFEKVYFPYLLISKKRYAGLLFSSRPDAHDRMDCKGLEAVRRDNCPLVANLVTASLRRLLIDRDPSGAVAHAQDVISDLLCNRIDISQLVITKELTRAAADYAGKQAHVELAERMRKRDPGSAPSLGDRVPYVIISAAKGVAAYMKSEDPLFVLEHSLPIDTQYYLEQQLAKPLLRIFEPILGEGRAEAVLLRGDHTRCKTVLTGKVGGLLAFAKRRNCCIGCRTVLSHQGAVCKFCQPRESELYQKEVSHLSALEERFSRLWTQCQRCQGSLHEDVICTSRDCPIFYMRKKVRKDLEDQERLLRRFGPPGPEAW
T1 sequence (P49004 whole entry, stated change not applied, chain 2 of 2): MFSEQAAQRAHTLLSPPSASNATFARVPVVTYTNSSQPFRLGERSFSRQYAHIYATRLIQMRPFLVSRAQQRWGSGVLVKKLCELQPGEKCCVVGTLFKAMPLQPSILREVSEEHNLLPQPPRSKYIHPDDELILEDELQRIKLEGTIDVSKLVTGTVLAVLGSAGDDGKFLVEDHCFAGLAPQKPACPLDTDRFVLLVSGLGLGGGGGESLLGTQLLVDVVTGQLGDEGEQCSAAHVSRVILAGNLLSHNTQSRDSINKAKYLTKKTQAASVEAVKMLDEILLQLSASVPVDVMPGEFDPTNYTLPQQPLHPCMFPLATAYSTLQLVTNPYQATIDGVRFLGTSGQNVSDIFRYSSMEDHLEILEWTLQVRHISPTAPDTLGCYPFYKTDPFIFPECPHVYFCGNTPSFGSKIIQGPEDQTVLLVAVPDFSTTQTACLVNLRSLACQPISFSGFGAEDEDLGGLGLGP

B1: NH2-terminally his-tagged Drosophila PCNA with amino acids 119-133 replaced by the corresponding human sequence (other, Drosophila melanogaster | human, UniProt P17917 1-118, looked up)
chain: MFEARLGQATILKKILDAIKDLLNEATFDCSDSGIQLQAMDNSHVSLVSLTLRSDGFDKFRCDRNLSMGMNLGSMAKILKCANNEDNVTMKAQDNADTVTIMFESANQEKVSDYEMKLMDLDVEQLGIPEQEYSCVVRMPAMEFARICRDLAQFSESVVICCTKEGVKFSASGDVGTANIKLAQTGSVDKEEEAVIIEMQEPVTLTFACRYLNAFTKATPLSTQVQLSMCADVPLVVEYAIKDLGHIRYYLAPKIEDNET
notes: PCNA, Drosophila melanogaster, the stretch before the interdomain connector loop (up to residue 118); PCNA, Drosophila melanogaster, the stretch after the interdomain connector loop (from residue 134); source: E. coli M15 [pREP4], purified (Ni2+-IDA Sepharose); not shown: His tag, N-terminal, kept
With B1, the binding result is recorded as “binds”.

B2: NH2-terminally his-tagged Drosophila PCNA with glutamine 123 mutated to valine (natural protein, Drosophila melanogaster, UniProt P17917 1-260, looked up)
chain: B1 chain with D120N, Q125H, Q131T, E132D, Y133F
notes: proliferating cell nuclear antigen (PCNA), Drosophila melanogaster, with Q123V; also called Q123V dPCNA; Q123V; source: E. coli M15 [pREP4], purified (Ni2+-IDA Sepharose); not shown: His tag, N-terminal, kept
As for B2, the binding result is given as “binds”.
